Source: patent publication US20050048050A1 (CITY OF HOPE, published 2005)

B1: mouse monoclonal antibody 1H7 (antibody, V domains shown)
VH: EVKVVESGGGLVKPGGSLKLSCAASGFTFSIYAMSWVRQTPEKKLEWVASISNGGTTYYPDSVKGRFTISRDNARNILYLQMNSLRSEDTAMYYCARTFYYSFPRAMDYWGQGTSVTVSS
VL: DIVMTQSHKFMSTSVGDRVNITCKASQDVNTAVAWYQQKPGQSPKLLIYWASTRHTGVPDRFTGSGSGTDFTLTISSVQAEDLTLYYCHQHYTTPYTFGGGTNLEIK
notes: Whole murine monoclonal antibody; also called 1H7 mAb
B2: αIGF-IR scFv-Fc (chimeric single-chain antibody against human insulin-like growth factor I receptor) (Fc fusion)
chain: DIVMTQSHKFMSTSVGDRVNITCKASQDVNTAVAWYQQKPGQSPKLLIYWASTRHTGVPDRFTGSGSGTDFTLTISSVQAEDLTLYYCHQHYTTPYTFGGGTNLEIKGGGGSGGGSGGGGSGGGSEVKVVESGGGLVKPGGSLKLSCAASGFTFSIYAMSWVRQTPEKKLEWVASISNGGTTYYPDSVKGRFTISRDNARNILYLQMNSLRSEDTAMYYCARTFYYSFPRAMDYWGQGTSVTVSS
notes: Divalent antibody with an expected Mr of 120 kDa, expressed in NS0 cells and purified on protein A. The signal peptide from the mT84.66 light chain is left out; not shown: human IgG1 Fc domain (cDNA clone from Dr. J. Schlom), SalI fragment inserted into the XhoI site of pcDNA/αIGF-IR scFv

Target: T1, purified human insulin-like growth factor I receptor (IGF-IR) (human, UniProt P08069 31-1367, limits assumed)
T1 construct: The natural receptor is made of alpha and beta subunits from one precursor; also called IGF-R; human IGF-1 receptor
Assay: SPR (BIAcore), IGF-IR immobilised on the chip, antibody as analyte
Method: The affinity constants of 1H7 (10⁹ M⁻¹) and αIGF-IR scFv-Fc (10⁸ M⁻¹) for IGF-IR were determined using a BIAcore instrument (BIAcore Inc., Piscataway, N.J.). Analytes, at various concentrations, were passed over IGF-IR-immobilized chips (0.3 μg/chip) at a flow rate of 5 μl/min.

T1 sequence (P08069 31-1367 limits assumed, form in doubt): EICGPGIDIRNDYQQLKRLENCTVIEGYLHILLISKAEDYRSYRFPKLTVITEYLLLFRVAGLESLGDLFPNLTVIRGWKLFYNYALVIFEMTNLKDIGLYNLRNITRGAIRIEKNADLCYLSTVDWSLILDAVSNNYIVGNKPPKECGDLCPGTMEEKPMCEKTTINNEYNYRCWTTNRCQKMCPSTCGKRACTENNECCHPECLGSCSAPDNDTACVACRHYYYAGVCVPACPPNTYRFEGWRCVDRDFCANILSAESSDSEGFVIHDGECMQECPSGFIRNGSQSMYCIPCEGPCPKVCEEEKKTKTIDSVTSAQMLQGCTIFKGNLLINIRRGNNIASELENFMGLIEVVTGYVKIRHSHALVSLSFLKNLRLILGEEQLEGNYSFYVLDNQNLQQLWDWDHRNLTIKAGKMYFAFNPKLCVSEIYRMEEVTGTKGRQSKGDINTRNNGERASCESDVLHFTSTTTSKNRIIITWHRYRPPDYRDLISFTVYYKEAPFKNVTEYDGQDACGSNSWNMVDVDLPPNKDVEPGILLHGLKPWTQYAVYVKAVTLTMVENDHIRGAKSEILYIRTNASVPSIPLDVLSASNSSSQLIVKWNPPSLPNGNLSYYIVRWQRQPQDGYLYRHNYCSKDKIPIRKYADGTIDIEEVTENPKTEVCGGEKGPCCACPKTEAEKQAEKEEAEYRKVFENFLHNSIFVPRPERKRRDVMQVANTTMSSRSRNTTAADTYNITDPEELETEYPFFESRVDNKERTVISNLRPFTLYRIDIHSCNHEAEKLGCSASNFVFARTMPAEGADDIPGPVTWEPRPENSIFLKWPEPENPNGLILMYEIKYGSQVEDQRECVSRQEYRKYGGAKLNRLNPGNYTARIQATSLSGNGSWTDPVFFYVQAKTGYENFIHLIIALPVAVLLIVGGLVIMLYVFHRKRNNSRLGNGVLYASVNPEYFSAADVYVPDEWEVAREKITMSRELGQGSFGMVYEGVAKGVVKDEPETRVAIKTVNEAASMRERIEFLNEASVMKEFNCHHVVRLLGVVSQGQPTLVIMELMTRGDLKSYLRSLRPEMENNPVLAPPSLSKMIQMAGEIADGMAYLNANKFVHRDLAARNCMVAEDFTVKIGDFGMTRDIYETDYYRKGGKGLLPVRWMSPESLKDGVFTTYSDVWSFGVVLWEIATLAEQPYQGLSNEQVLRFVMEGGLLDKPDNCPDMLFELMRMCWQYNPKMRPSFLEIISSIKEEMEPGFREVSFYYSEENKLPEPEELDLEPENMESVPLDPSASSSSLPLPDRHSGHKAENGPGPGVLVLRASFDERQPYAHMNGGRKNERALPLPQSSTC

Ka	Binder
1e+09 M⁻¹	B1
1e+08 M⁻¹	B2
